In this experiment the target is p73α (UniProt O15350). The experiment can be described thus: cell-based or functional assay.
Sequence of p73α (O15350 whole entry): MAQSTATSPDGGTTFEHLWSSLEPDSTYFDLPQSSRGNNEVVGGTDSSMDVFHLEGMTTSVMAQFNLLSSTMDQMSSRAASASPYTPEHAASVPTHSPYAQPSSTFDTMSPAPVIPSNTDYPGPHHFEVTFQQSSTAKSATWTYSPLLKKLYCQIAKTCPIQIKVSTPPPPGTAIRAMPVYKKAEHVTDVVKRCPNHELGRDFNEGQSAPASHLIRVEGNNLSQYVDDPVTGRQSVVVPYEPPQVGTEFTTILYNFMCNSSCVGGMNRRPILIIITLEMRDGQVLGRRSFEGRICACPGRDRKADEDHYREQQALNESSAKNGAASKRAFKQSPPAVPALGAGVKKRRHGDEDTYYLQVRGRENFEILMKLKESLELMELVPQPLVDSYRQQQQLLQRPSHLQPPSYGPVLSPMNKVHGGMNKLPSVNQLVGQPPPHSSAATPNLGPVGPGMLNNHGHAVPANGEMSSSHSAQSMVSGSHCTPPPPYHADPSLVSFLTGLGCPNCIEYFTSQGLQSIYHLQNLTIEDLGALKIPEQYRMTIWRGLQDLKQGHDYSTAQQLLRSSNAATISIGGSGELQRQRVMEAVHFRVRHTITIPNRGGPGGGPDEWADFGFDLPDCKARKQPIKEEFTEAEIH

B1: ASPP2 (1-1128) (protein)
chain: MMPMFLTVYLSNNEQHFTEVPVTPETICRDVVDLCKEPGESDCHLAEVWCGSERPVADNERMFDVLQRFGSQRNEVRFFLRHERPPGRDIVSGPRSQDPSLKRNGVKVPGEYRRKENGVNSPRMDLTLAELQEMASRQQQQIEAQQQLLATKEQRLKFLKQQDQRQQQQVAEQEKLKRLKEIAENQEAKLKKVRALKGHVEQKRLSNGKLVEEIEQMNNLFQQKQRELVLAVSKVEELTRQLEMLKNGRIDSHHDNQSAVAELDRLYKELQLRNKLNQEQNAKLQQQRECLNKRNSEVAVMDKRVNELRDRLWKKKAALQQKENLPVSSDGNLPQQAASAPSRVAAVGPYIQSSTMPRMPSRPELLVKPALPDGSLVIQASEGPMKIQTLPNMRSGAASQTKGSKIHPVGPDWSPSNADLFPSQGSASVPQSTGNALDQVDDGEVPLREKEKKVRPFSMFDAVDQSNAPPSFGTLRKNQSSEDILRDAQVANKNVAKVPPPVPTKPKQINLPYFGQTNQPPSDIKPDGSSQQLSTVVPSMGTKPKPAGQQPRVLLSPSIPSVGQDQTLSPGSKQESPPAAAVRPFTPQPSKDTLLPPFRKPQTVAASSIYSMYTQQQAPGKNFQQAVQSALTKTHTRGPHFSSVYGKPVIAAAQNQQQHPENIYSNSQGKPGSPEPETEPVSSVQENHENERIPRPLSPTKLLPFLSNPYRNQSDADLEALRKKLSNAPRPLKKRSSITEPEGPNGPNIQKLLYQRTTIAAMETISVPSYPSKSASVTASSESPVEIQNPYLHVEPEKEVVSLVPESLSPEDVGNASTENSDMPAPSPGLDYEPEGVPDNSPNLQNNPEEPNPEAPHVLDVYLEEYPPYPPPPYPSGEPEGPGEDSVSMRPPEITGQVSLPPGKRTNLRKTGSERIAHGMRVKFNPLALLLDSSLEGEFDLVQRIIYEVDDPSLPNDEGITALHNAVCAGHTEIVKFLVQFGVNVNAADSDGWTPLHCAASCNNVQVCKFLVESGAAVFAMTYSDMQTAADKCEEMEEGYTQCSQFLYGVQEKMGIMNKGVIYALWDYEPQNDDELPMKEGDCMTIIHREDEDEIEWWWARLNDKEGYVPRNLLGLYPRIKPRQRSLA
B1 registered a transactivation function on the Bax promoter (Bax-luc reporter) of 6 fold.

B2: Apoptosis Stimulating Protein 1 (ASPP1) (protein)
chain: MMPMILTVFLSNNEQILTEVPITPETTCRDVVEFCKEPGEGSCHLAEVWRGNERPIPFDHMMYEHLQIWGPRREEVKFFLRHEDSPTENSEQGGRQTQEQRTQRNVINVPGDKRTEYGVGNPRVELTLSELQDMAARQQQQIENQQQMLVAKEQRLHFLKQQERRQQQSISENEKLQKLKERVEAQENKLKKIRAMRGQVDYSKIMNGNLSAEIERFSAMFQEKKQEVQTAILRVDQLSQQLEDLKKGKLNGFQSYNGKLTGPAAVELKRLYQELQIRNQLNQEQNSKLQQQKELLNKRNMEVAMMDKRISELRERLYGKKIQLNRVNGTSSPQSPLSTSGRVAAVGPYIQVPSAGSFPVLGDPIKPQSLSIASNAAHGRSKSANDGNWPTLKQNSSSSVKPVQVAGADWKDPSVEGSVKQGTVSSQPVPFSALGPTEKPGIEIGKVPPPIPGVGKQLPPSYGTYPSPTPLGPGSTSSLERRKEGSLPRPSAGLPSRQRPTLLPATGSTPQPGSSQQIQQRISVPPSPTYPPAGPPAFPAGDSKPELPLTVAIRPFLADKGSRPQSPRKGPQTVNSSSIYSMYLQQATPPKNYQPAAHSALNKSVKAVYGKPVLPSGSTSPSPLPFLHGSLSTGTPQPQPPSESTEKEPEQDGPAAPADGSTVESLPRPLSPTKLTPIVHSPLRYQSDADLEALRRKLANAPRPLKKRSSITEPEGPGGPNIQKLLYQRFNTLAGGMEGTPFYQPSPSQDFMGTLADVDNGNTNANGNLEELPPAQPTAPLPAEPAPSSDANDNELPSPEPEELICPQTTHQTAEPAEDNNNNVATVPTTEQIPSPVAEAPSPGEEQVPPAPLPPASHPPATSTNKRTNLKKPNSERTGHGLRVRFNPLALLLDASLEGEFDLVQRIIYEVEDPSKPNDEGITPLHNAVCAGHHHIVKFLLDFGVNVNAADSDGWTPLHCAASCNSVHLCKQLVESGAAIFASTISDIETAADKCEEMEEGYIQCSQFLYGVQEKLGVMNKGVAYALWDYEAQNSDELSFHEGDALTILRRKDESETEWWWARLGDREGYVPKNLLGLYPRIKPRQRTLA
For B2, the transactivation function on the Bax promoter (Bax-luc reporter) stood at 3 fold.

The values are drawn from patent publication US20040228866A1, “Suppressor genes” (Ludwig Institute for Cancer Research, priority 2000, published 2004).
